Data from publication PMC10397247.

What was measured:
[1] = molecular target: T1, O5-bP; assay: two-hybrid library CCNG1;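 further: natural log of median RNA to DNA barcode read ratio; higher means stronger binding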
T1 chain: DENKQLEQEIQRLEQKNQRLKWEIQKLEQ

[2] = molecular target: T2, O3-bP; assay: two-hybrid library CCNG1;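 further: natural log of median RNA to DNA barcode read ratio; higher means stronger binding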
T2 chain: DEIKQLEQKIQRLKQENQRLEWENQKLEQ

[3] = molecular target: T3, O8-bP; assay: two-hybrid library CCNG1;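 further: natural log of median RNA to DNA barcode read ratio; higher means stronger binding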
T3 chain: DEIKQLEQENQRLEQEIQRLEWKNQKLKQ

[4] = molecular target: T4, O2-bP; assay: two-hybrid library CCNG1;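 further: natural log of median RNA to DNA barcode read ratio; higher means stronger binding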
T4 chain: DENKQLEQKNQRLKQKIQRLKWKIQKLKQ

[5] = molecular target: T5, O9-bP; assay: two-hybrid library CCNG1
T5 chain: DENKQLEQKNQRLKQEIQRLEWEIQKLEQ

[6] = molecular target: T6, O4-bP; assay: two-hybrid library CCNG1
T6 chain: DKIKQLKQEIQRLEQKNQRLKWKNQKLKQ

[7] = molecular target: T7, O6-bP; assay: two-hybrid library CCNG1
T7 chain: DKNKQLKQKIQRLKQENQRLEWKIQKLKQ

[8] = molecular target: T8, O7-bP; assay: two-hybrid library CCNG1
T8 chain: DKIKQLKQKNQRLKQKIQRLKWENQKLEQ

[9] = molecular target: T9, O16-bP; assay: two-hybrid library CCNG1
T9 chain: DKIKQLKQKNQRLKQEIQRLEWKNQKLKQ

[10] = molecular target: T10, Q8-AA; assay: two-hybrid library CCmax
T10 chain: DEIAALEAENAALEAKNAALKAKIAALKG

[11] = molecular target: T11, O15-bP; assay: two-hybrid library CCNG1
T11 chain: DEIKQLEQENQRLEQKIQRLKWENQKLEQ

[12] = molecular target: T12, 4H3297-bN; assay: two-hybrid library CCNG1
T12 chain: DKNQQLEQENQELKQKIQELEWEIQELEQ

[13] = molecular target: T13, 4H570-bH; assay: two-hybrid library CCNG1
T13 chain: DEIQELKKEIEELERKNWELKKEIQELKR

[14] = molecular target: T14, 4H2518-bN; assay: two-hybrid library CCNG1
T14 chain: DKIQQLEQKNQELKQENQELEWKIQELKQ

[15] = molecular target: T15, 4H56-bN; assay: two-hybrid library CCNG1
T15 chain: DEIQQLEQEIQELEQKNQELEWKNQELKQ

[16] = molecular target: T16, 4H3381-bN; assay: two-hybrid library CCNG1
T16 chain: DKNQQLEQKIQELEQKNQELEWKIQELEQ

[17] = molecular target: T17, 4H949-bN; assay: two-hybrid library CCNG1
T17 chain: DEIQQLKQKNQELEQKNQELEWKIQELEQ

[18] = molecular target: T18, 4H349-bN; assay: two-hybrid library CCNG1
T18 chain: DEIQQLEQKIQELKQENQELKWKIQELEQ

[19] = molecular target: T19, 4H264-bN; assay: two-hybrid library CCNG1
T19 chain: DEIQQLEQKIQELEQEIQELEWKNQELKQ

[20] = molecular target: T20, 4H2585-bN; assay: two-hybrid library CCNG1
T20 chain: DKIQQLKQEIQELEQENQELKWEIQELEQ

[21] = molecular target: T21, 4H796-bN; assay: two-hybrid library CCNG1
T21 chain: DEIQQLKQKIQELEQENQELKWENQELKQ

[22] = molecular target: T22, 4H2859-bN; assay: two-hybrid library CCNG1
T22 chain: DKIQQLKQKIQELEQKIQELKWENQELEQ

[23] = molecular target: T23, 4H3364-bN; assay: two-hybrid library CCNG1
T23 chain: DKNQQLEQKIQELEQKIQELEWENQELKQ

[24] = molecular target: T24, 4H2760-bN; assay: two-hybrid library CCNG1
T24 chain: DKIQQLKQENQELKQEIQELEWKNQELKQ

[25] = molecular target: T25, 4H932-bN; assay: two-hybrid library CCNG1
T25 chain: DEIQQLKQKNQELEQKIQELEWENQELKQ

[26] = molecular target: T26, 4H730-bN; assay: two-hybrid library CCNG1
T26 chain: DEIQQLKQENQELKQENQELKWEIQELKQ

[27] = molecular target: T27, 4H2931-bN; assay: two-hybrid library CCNG1
T27 chain: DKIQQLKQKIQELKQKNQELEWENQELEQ

[28] = molecular target: T28, 4H3041-bN; assay: two-hybrid library CCNG1
T28 chain: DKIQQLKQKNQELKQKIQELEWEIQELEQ

[29] = molecular target: T29, 4H4038-bA; assay: two-hybrid library CCNG1
T29 chain: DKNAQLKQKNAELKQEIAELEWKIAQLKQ

[30] = molecular target: T30, 4H470-bA; assay: two-hybrid library CCNG1
T30 chain: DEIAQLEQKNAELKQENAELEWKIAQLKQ

[31] = molecular target: T31, 4H607-bA; assay: two-hybrid library CCNG1
T31 chain: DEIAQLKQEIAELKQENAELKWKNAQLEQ

[32] = molecular target: T32, 4H3961-bA; assay: two-hybrid library CCNG1
T32 chain: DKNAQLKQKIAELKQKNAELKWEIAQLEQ

[33] = molecular target: T33, 4H3907-bA; assay: two-hybrid library CCNG1
T33 chain: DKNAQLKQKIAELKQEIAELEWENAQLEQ

[34] = molecular target: T34, 4H457-bH; assay: two-hybrid library CCNG1
T34 chain: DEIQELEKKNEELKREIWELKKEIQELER

[35] = molecular target: T35, 4H953-bH; assay: two-hybrid library CCNG1
T35 chain: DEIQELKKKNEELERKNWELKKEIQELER

[36] = molecular target: T36, 4H4073-bH; assay: two-hybrid library CCNG1
T36 chain: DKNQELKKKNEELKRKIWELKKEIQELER

[37] = molecular target: T37, 4H3010-bH; assay: two-hybrid library CCNG1
T37 chain: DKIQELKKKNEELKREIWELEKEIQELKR

[38] = molecular target: T38, 4H780-bH; assay: two-hybrid library CCNG1
T38 chain: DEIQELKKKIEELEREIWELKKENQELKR

[39] = molecular target: T39, 4H346-bH; assay: two-hybrid library CCNG1
T39 chain: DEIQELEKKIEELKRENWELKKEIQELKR

[40] = molecular target: T40, 4H2673-bH; assay: two-hybrid library CCNG1
T40 chain: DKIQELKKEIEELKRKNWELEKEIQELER

[41] = molecular target: T41, 4H918-bH; assay: two-hybrid library CCNG1
T41 chain: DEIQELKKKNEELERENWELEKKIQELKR

[42] = molecular target: T42, 4H2627-bH; assay: two-hybrid library CCNG1
T42 chain: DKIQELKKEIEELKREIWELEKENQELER

[43] = molecular target: T43, 4H754-bH; assay: two-hybrid library CCNG1
T43 chain: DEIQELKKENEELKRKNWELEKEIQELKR

[44] = molecular target: T44, 4H855-bH; assay: two-hybrid library CCNG1
T44 chain: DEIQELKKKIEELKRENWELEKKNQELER

[45] = molecular target: T45, 4H2702-bH; assay: two-hybrid library CCNG1
T45 chain: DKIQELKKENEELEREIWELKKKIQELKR

[46] = molecular target: T46, 4H683-bH; assay: two-hybrid library CCNG1
T46 chain: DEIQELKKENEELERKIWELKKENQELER

[47] = molecular target: T47, 4H3926-bH; assay: two-hybrid library CCNG1
T47 chain: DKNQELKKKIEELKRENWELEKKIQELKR

[48] = molecular target: T48, 4H968-bH; assay: two-hybrid library CCNG1
T48 chain: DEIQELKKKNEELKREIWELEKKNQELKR

[49] = molecular target: T49, 4H3112-bH; assay: two-hybrid library CCNG1
T49 chain: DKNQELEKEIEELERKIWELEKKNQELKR

[50] = molecular target: T50, 4H797-bH; assay: two-hybrid library CCNG1
T50 chain: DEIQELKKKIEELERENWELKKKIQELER

[51] = molecular target: T51, 4H3427-bH; assay: two-hybrid library CCNG1
T51 chain: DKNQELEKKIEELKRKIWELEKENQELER

[52] = molecular target: T52, 4H575-bH; assay: two-hybrid library CCNG1
T52 chain: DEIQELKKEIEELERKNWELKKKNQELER

[53] = molecular target: T53, O2; assay: two-hybrid library CCNG1
T53 chain: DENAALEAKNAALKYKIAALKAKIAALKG

[54] = molecular target: T54, O16; assay: two-hybrid library CCNG1
T54 chain: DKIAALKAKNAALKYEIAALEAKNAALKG

[55] = molecular target: T55, O5; assay: two-hybrid library CCNG1
T55 chain: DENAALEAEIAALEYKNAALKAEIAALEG

[56] = molecular target: T56, O15; assay: two-hybrid library CCNG1
T56 chain: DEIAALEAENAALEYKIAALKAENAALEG

[57] = molecular target: T57, O6; assay: two-hybrid library CCNG1
T57 chain: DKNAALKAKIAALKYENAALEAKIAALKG

[58] = molecular target: T58, O4; assay: two-hybrid library CCNG1
T58 chain: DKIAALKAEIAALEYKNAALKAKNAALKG

[59] = molecular target: T59, O8; assay: two-hybrid library CCNG1
T59 chain: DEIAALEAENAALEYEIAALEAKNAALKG

[60] = molecular target: T60, O9; assay: two-hybrid library CCNG1
T60 chain: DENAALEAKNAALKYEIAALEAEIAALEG

[61] = molecular target: T61, O3; assay: two-hybrid library CCNG1
T61 chain: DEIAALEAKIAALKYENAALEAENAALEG

[62] = molecular target: T62, O7; assay: two-hybrid library CCNG1
T62 chain: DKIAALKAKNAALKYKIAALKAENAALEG

Binder: DKIKQLKQKNQRLKQEIQRLEWKNQKLKQ [O16-bP]
- interaction score [1]: -0.672
- interaction score [2]: -1.06
- interaction score [3]: 1.44
- interaction score [4]: -1.5
- interaction score [5]: -1.13
- interaction score [6]: -1.21
- interaction score [7]: 0.641
- interaction score [8]: -1.1
- interaction score [9]: -0.576

Binder: DEIAALEAENAALEAKNAALKAKIAALKG [Q8-AA]
- interaction score [10]: -1.19

Binder: DEIKQLEQENQRLEQKIQRLKWENQKLEQ [O15-bP]
- interaction score [1]: -0.178
- interaction score [2]: -0.872
- interaction score [11]: -0.0595
- interaction score [3]: -0.223
- interaction score [4]: -1.39
- interaction score [5]: -1.06
- interaction score [6]: -1.2
- interaction score [7]: -0.729
- interaction score [8]: -0.235
- interaction score [9]: 1.51

Binder: DKIQQLEQKNQELKQENQELEWKIQELKQ [4H2518-bN]
- interaction score [12]: -0.555
- interaction score [13]: -2.15
- interaction score [14]: -0.0161
- interaction score [15]: -0.0872
- interaction score [16]: -0.272
- interaction score [17]: -0.152
- interaction score [18]: -0.274
- interaction score [19]: 1.11
- interaction score [20]: 0.403
- interaction score [21]: 0.473
- interaction score [22]: -0.834
- interaction score [23]: -0.536
- interaction score [24]: 0.227
- interaction score [25]: -0.482
- interaction score [26]: 1.02
- interaction score [27]: -0.539
- interaction score [28]: -0.522

Binder: DKNAQLKQKIAELKQEIAELEWENAQLEQ [4H3907-bA]
- interaction score [29]: -0.611
- interaction score [30]: -1.37
- interaction score [31]: -0.806
- interaction score [32]: -1.16
- interaction score [33]: 0.8

Binder: DKNAQLKQKNAELKQEIAELEWKIAQLKQ [4H4038-bA]
- interaction score [29]: -0.541

Binder: DKIQELKKEIEELKREIWELEKENQELER [4H2627-bH]
- interaction score [34]: -1.91
- interaction score [35]: -1.4
- interaction score [36]: 1.38
- interaction score [37]: 0.547
- interaction score [38]: -0.424
- interaction score [39]: -0.309
- interaction score [40]: 0.273
- interaction score [41]: -0.493
- interaction score [42]: 1.3
- interaction score [43]: -1.94
- interaction score [44]: -0.425
- interaction score [45]: 0.512
- interaction score [46]: 0.431
- interaction score [47]: -0.251
- interaction score [48]: 0.133
- interaction score [49]: -0.225
- interaction score [50]: -0.67
- interaction score [51]: 1.18
- interaction score [52]: -0.0013

Binder: DEIAALEAENAALEYKIAALKAENAALEG [O15]
- interaction score [53]: -2.21
- interaction score [54]: 1.41
- interaction score [55]: -1.45
- interaction score [56]: -1.57
- interaction score [57]: -2.48
- interaction score [58]: -1.8
- interaction score [59]: -1.73
- interaction score [60]: -2.28
- interaction score [61]: -2.17
- interaction score [62]: -0.707
